In patent US11473073B2, “Aminopeptidases for protein hydrolyzates” (DUPONT NUTRITION BIOSCIENCES APS, priority 2015, dated 2022):

Tests used:
Format in all cases: biochemical
[1] = Product inhibition of H-Ala-pNA hydrolysis by amino acid inhibitor mix; conditions: pH 9.0, 30° C.
Procedure: Sigma cat # D2650). […] […] and proline were dissolved in DMSO. All other amino acids were dissolved in buffer. […] The reaction was started by adding 20 μL substrate. Only one substrate concentration was used per plate.

[2] = system: peptide WHWLQLKPGQPMY (SEQ ID NO:26); assay: Hydrolysis of proline containing peptide, LC-MS; conditions: peptide 1 mg/mL, aminopeptidase 1 ug/mL, CPB-Buffer, 55° C.; FIG. 5-7
Procedure: The peptide […] (SEQ ID NO:26) was hydrolysed with TRI03 and TRI035. The peptide (1 mg/mL) was incubated with 1 ug/mL of the aminopeptidase in 20 mM CPB-Buffer (20 mM Citric acid, 20 mM Phosphate. 20 mM Boric acid) at 55° C. Aliquots (50 μL) were stopped with 50 rel 5% TFA at the indicated time points and subjected to LC-MS analysis.
Capillary LC-MS/MS analyses were performed using an Agilent 1100 LC system (Agilent Technologies) interfaced to a LTQ Orbitrap Classic hybrid mass spectrometer (Thermo Scientific, Bremen, Germany). Samples were loaded onto a 15 cm Phenomenix Jupiter 4μ Proteo 90A, C4 analytical column. Separation was performed at a flow rate of 16 μL/min using a 10 min gradient of 0-40% Solvent B H2O/CH3CN/HCOOH (50/950/0.65 v/v/v) into the IONMAX® ion source (Thermo Scientific, San Jose). The LTQ Orbitrap Classic instrument was operated in a data-dependent MS/MS mode. The peptide masses were measured by the Orbitrap (MS scans were obtained with a resolution of 60 000 at m/z 400), and up to 2 of the most intense peptide m/z were selected and subjected to fragmentation using CID in the linear ion trap (LTQ). Dynamic exclusion was enabled with a list size of 500 masses, duration of 40 s, and an exclusion mass width of ±10 ppm relative to masses on the list.
The RAW files were accessed with the program Skyline 2.6.0.7176 (MacLean, B., et al., “Skyline: an open source document editor for creating and analyzing targeted proteomics experiments”, Bioinformatics, 2010, 26(7): p. 966-8) which uses the MS1 intensities to build chromatograms (Schilling, B., et al., “Platform-independent and label-free quantitation of proteomic data using MS1 extracted ion chromatograms in skyline: application to protein acetylation and phosphorylation”, Mol Cell Proteomics, 2012. 11(5): p. 202-14). The precursor isotopic import filter was set to a count of three, (M, M+1, and M+2) at a resolution of 60,000 and the most intense charge state was used. Peptide sequences of the substrate as well as cleavage products were typed into Skyline and intensities were calculated in each sample. […]

[3] = system: gluten; assay: Degree of hydrolysis of pre-hydrolysed gluten; conditions: 50° C., 20 hr
Procedure: (§1) The degree of hydrolyses (DH) describes the relative amount of cleaved peptides bounds compared to an acid hydrolyses of the same amount of protein conducted e.g. in 6 M HCL at ˜120° C. for ˜24 h. The higher the DH can therefore be applied to assess the efficiency of amino acid liberation of a general PepN such as a PepN 1 or a PepN 2 type. The cell free culture broth was concentrated (10 kDa cut-off, Sartorius, Göttingen, Germany) and desalted applying a disposal desalting column (PD10, GE, Munchen, Germany) as described by the manufacturer. As substrates were pre-hydrolysed 10% (w/w) Na-caseinate (DMK, Germany), whey protein isolate (WPI; Arla, Viby, Denmark), soy protein isolate (SPI; SUPRO® 760, DuPont, Brabrand, Denmark) and gluten suspensions were applied. The pre-hydrolysis was conducted with 1% (w/wprotein) of FOODPRO® Alkaline Protease, 1% (w/wprotein) FOODPRO® PNL for the Na-Caseinate, the WPI as well as the SPI suspension. All pre-hydrolyses were conducted at 55° C. for 18 h followed by an inactivation step at 95° C. for 20 min. Each applied PepN 2 has been inactivated at 95 C for 15 min as a control of the elimination of any carryover of amino acids from the culture broth to the final hydrolyses as well as for the sufficient inactivation of the applied endopeptidases. The hydrolyses were conducted in a 96-well micro titer plate format and consisted of 150 μL of the pre-hydrolyzed protein suspension combined with 50 μL of a PepN 2 stock solution as indicated in Table 1 below. The hydrolyses were conducted at 50° C. for 20 hr, subsequently, the hydrolysis were stopped by the addition of 20 μL 2 M TCA (Trichloroacetic acid, Sigma-Aldrich, Schnelldorf, Germany). The efficiency of the amino acid liberation of the PepN 2 types from Neosartorya fischeri and Aspergillus clavatus can be seen in Table 1 (B) and (A). […] For the gluten hydrolyses, an increased DH was noticed in the protein range from 0.02-0.3 mg/mL PepN 2.

[4] = system: whey protein isolate (WPI); assay: Degree of hydrolysis of pre-hydrolysed whey protein isolate; conditions: 50° C., 20 hr
Procedure: as §1

[5] = system: soy protein isolate (SPI); assay: Degree of hydrolysis of pre-hydrolysed soy protein isolate; conditions: 50° C., 20 hr
Procedure: as §1

[6] = system: Na-caseinate; assay: Degree of hydrolysis of pre-hydrolysed Na-caseinate; conditions: Casein, 50° C., 20 hr
Procedure: as §1

[7] = inactivated enzyme at the highest conc.

B1: TRI035: fungal aminopeptidase type-2 (pepN_2), NCBI XP_001273779 from Aspergillus clavatus NRRL 1 (protein)
chain: MQTFGAFLVSFLAASGLAAANAPGGPGGHGRKLPVNPKTFPNEIRLKDLLHGSQKLEDFAYAYPERNRVFGGQAHLDTVNYLYRELKKTGYYDVYKQPQVHQWTRADQSLTLGGDSIQASTMTYSPSVNVTAPLSLVSKLGCAEGDYSADVKGKIALVSRGECSFAQKSVLSAKAGAVATIVYNNVDGSLAGTLGGATSELGPYSPIIGITLAAGQDLVARLQAAPTEVSLWIDSKVENRTTYNVIAQTKGGDPNNVVALGGHTDSVENGPGINDDGSGVISNLVVAKALTRYSVKNAVRFCFWTAEEFGLLGSNYYVDNLSPAELAKIRLYLNFDMIASPNYALMIYDGDGSAFNLTGPPGSAQIESLFENYYKSIKQGFVPTAFDGRSDYEGFILKGIPAGGVFTGAESLKTEEQARLFGGQAGVALDANYHAKGDNMTNLNHKAFLINSRATAFAVATYANNLSSIPPRNATVVKRESMKWTKREEPHTHGADTGCFASRVKE
modifications: Synthetic peptide with leader sequence
In the case of B1, the “product inhibition compared to TRI063 from A. oryzae” value [1] is reported as “less inhibited by product”, the “hydrolysis of WHWLQLKPGQPMY to KPGQPMY and further down to QPMY” value [2] is reported as “can hydrolyze” and the Degree of hydrolysis ([3]; PepN 2 stock 0.02 mg/mL) is reported as 12%. The Degree of hydrolysis ([3]; PepN 2 stock 0.03 mg/mL) was 14%, the Degree of hydrolysis ([3]; PepN 2 stock 0.04 mg/mL) was 15% and the Degree of hydrolysis ([3]; PepN 2 stock 0.05 mg/mL) was 15%. It also gave a Degree of hydrolysis ([3]; PepN 2 stock 0.1 mg/mL) of 17%, a Degree of hydrolysis ([3]; PepN 2 stock 0.15 mg/mL) of 18% and a Degree of hydrolysis ([3]; PepN 2 stock 0.2 mg/mL) of 17%. For the same molecule, the Degree of hydrolysis ([3]; PepN 2 stock 0.25 mg/mL) was 19%, the Degree of hydrolysis ([3]; PepN 2 stock 0.3 mg/mL) was 19% and the Degree of hydrolysis ([3]; PepN 2 stock 0.35 mg/mL) was 22%. The Degree of hydrolysis [3, 7] was 4%, the Degree of hydrolysis ([4]; PepN 2 stock 0.02 mg/mL) was 19% and the Degree of hydrolysis ([4]; PepN 2 stock 0.03 mg/mL) was 20%. It also gave a Degree of hydrolysis ([4]; PepN 2 stock 0.04 mg/mL) of 21%, a Degree of hydrolysis ([4]; PepN 2 stock 0.05 mg/mL) of 22% and a Degree of hydrolysis ([4]; PepN 2 stock 0.1 mg/mL) of 23%. It also gave a Degree of hydrolysis ([4]; PepN 2 stock 0.15 mg/mL) of 27%, a Degree of hydrolysis ([4]; PepN 2 stock 0.2 mg/mL) of 25% and a Degree of hydrolysis ([4]; PepN 2 stock 0.25 mg/mL) of 28%. The Degree of hydrolysis ([4]; PepN 2 stock 0.3 mg/mL) was 29%, the Degree of hydrolysis ([4]; PepN 2 stock 0.35 mg/mL) was 29% and the Degree of hydrolysis [4, 7] was 8%. The Degree of hydrolysis ([5]; PepN 2 stock 0.02 mg/mL) was 11%, the Degree of hydrolysis ([5]; PepN 2 stock 0.03 mg/mL) was 12% and the Degree of hydrolysis ([5]; PepN 2 stock 0.04 mg/mL) was 13%. It also gave a Degree of hydrolysis ([5]; PepN 2 stock 0.05 mg/mL) of 14%, a Degree of hydrolysis ([5]; PepN 2 stock 0.1 mg/mL) of 16% and a Degree of hydrolysis ([5]; PepN 2 stock 0.15 mg/mL) of 15%. It also gave a Degree of hydrolysis ([5]; PepN 2 stock 0.2 mg/mL) of 17%, a Degree of hydrolysis ([5]; PepN 2 stock 0.25 mg/mL) of 21% and a Degree of hydrolysis ([5]; PepN 2 stock 0.3 mg/mL) of 21%. It also gave a Degree of hydrolysis ([5]; PepN 2 stock 0.35 mg/mL) of 21%, a Degree of hydrolysis [5, 7] of 6% and a Degree of hydrolysis ([6]; PepN 2 stock 0.02 mg/mL) of 16%. For the same molecule, the Degree of hydrolysis ([6]; PepN 2 stock 0.03 mg/mL) was 19%, the Degree of hydrolysis ([6]; PepN 2 stock 0.04 mg/mL) was 19% and the Degree of hydrolysis ([6]; PepN 2 stock 0.05 mg/mL) was 20%. For the same molecule, the Degree of hydrolysis ([6]; PepN 2 stock 0.1 mg/mL) was 21%, the Degree of hydrolysis ([6]; PepN 2 stock 0.15 mg/mL) was 23% and the Degree of hydrolysis ([6]; PepN 2 stock 0.2 mg/mL) was 24%. For the same molecule, the Degree of hydrolysis ([6]; PepN 2 stock 0.25 mg/mL) was 24%, the Degree of hydrolysis ([6]; PepN 2 stock 0.3 mg/mL) was 24% and the Degree of hydrolysis ([6]; PepN 2 stock 0.35 mg/mL) was 27%. It also gave a Degree of hydrolysis [6, 7] of 8%.
